The target of assay [1] is T1, full-length human OX40L expressed on CHO cells (human, UniProt P23510 1-183).
T1 construct: whole, on cells; also called CHO-OX40L cells; OX40L-expressing CHO cells
T1 sequence (looked up): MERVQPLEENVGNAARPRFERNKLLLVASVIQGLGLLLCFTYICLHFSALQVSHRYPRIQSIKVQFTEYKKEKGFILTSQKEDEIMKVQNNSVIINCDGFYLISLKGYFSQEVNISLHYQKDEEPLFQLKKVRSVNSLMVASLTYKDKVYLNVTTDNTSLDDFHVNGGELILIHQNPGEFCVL
The experiment in a line: Scatchard analysis, iodinated antibody on OX40L-expressing CHO cells. As for the experimental part:
Scatchard binding experiments were performed to determine if anti-OX40L mAbs 8E12 and 13G5 compete with each other for binding similar or overlapping epitopes on CHO cells expressing human OX40L, and to determine the binding affinity of the antibodies. 50 ug of anti-OX40L murine monoclonal antibodies 8E12 and 13G5 were iodinated using a standard lactoperoxidase method. Antibodies 8E12 and 13G5 were serially diluted 1:4 in media buffer (Dubeccos F12:DMEM, 1% bovine serum albumin, 0.05% sodium azide and 25 mM Hepes buffer pH 7.2) starting at an initial concentration of 200 nM. Two sets of dilution series (50 uL) were performed in duplicate in a 96 microwell plate. Wells from each set of dilutions received 50 uL of either iodinated 8E12 or 13G5 (0.25 nM final concentration). The plate was mixed and then the entire mixture was transferred to a 96 well tissue culture plate containing 30,000 OX40L-expressing CHO cells per well which had been plated out the previous day. The plates were covered and incubated overnight at 4° C. The next day the wells (containing cells) were aspirated and washed twice with media buffer. 200 uL of 1N NaOH was added to each well to lyse the cells, shaken for 10 minute, and then transferred to a 96 well microtube. Each tube was counted in a Wallac gamma scintillation counter. […]

Assay [2] concerns the target T2, recombinant human OX40L-flag polypeptide (human OX40 ligand extracellular domain fused to the flag peptide) (human, UniProt P23510 51-183).
T2 construct: extracellular domain; Expressed from CHO cells (Genentech); also called human OX40L ECD-Flag polypeptide; human OX40L in solution; not shown: flag peptide
T2 sequence (looked up): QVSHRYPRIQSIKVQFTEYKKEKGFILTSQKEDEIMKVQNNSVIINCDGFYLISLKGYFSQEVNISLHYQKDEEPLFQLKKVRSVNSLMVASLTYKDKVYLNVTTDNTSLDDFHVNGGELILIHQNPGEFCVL
The experiment in a line: SPR (BIAcore 3000), OX40L-Flag captured by immobilised anti-Flag, IgG as analyte. As for the experimental part:
Binding kinetics of mouse anti-OX40L antibodies to human OX40L were measured by surface plasmon resonance using Pharmacia BIAcore® 3000 (BIAcore AB, Uppsala, Sweden) at room temperature (Karlsson et al., 1994; Morton & Myszka, 1998). Anti-Flag antibody (anti-FlagM2, Sigma, St. Louis, Mo.) was immobilized to the sensor chip (CM5) through primary amine groups. A high flow rate was used in order to minimize mass transport effects. The carboxymethylated sensor chip surface matrix was activated by injecting 20 ul of a mixture of 0.025 M N-hydroxysuccinimide and 0.1 M N-ethyl-N′(dimethylaminopropyl) carbodiimide at 5 ul/min. 7 ul of 50 ug/ml anti-Flag in 10 mM sodium acetate, pH 4.5, were injected at 5 ul/min twice. After coupling, unoccupied sites on the chip were blocked by injecting 20 ul of 1M ethanolamine, pH 8.5. The running buffer was PBS containing 0.05% polysorbate 20. 5 ul of 4 ug/ml OX40L-Flag were injected at 30 ul/min to bind […] to the anti-Flag on the chip. For kinetic measurements, two-fold serial dilutions (6.2-50 nM) of mouse […] 8E12 (PUR 9333) and 13G5 (PUR 9306) in running buffer were injected over flow cell for 2 minutes at a flow rate of 30 ul/min and the bound anti-OX40L antibody was allow to dissociate for 20 minutes. […] Data were analyzed using a 1:1 binding model using global fitting. […]

Assay [3] deals with T1, full-length human OX40L expressed on …. In words: competitive radioligand binding on OX40L-expressing CHO cells; antibody titrated against iodinated OX40-Fc (0.25 nM final), overnight at 4 C, gamma counting, 4-parameter fit. As for the experimental part: Competitive binding experiments were performed to determine if anti-OX40L mAbs 8E12 and 13G5 competed with iodinated OX40-Fc (extracellular domain of OX40 receptor fused to Fc domain) for binding to OX40L expressed on CHO cells. 50 ug of […] was iodinated using a standard lactoperoxidase method. Antibodies 8E12 and 13G5 were serially diluted 1:4 in media buffer (Dubeccos F12:DMEM, 1% bovine serum albumin, 0.05% sodium azide and 25 mM Hepes buffer pH 7.2) starting at an initial concentration of 200 nM. Dilutions (50 uL) were performed in duplicate in a 96 microwell plate. Each well received 50 uL of iodinated […] (0.25 nM final concentration), was mixed and then the entire mixture was transferred to a 96 well tissue culture plate containing 30,000 OX40L-expressing CHO cells per well, which had been plated out the previous day. The plates were covered and incubated overnight at 4° C. The next day the wells (containing cells) were aspirated and washed twice with media buffer. 200 uL of 1N NaOH was added to each well to lyse the cells, shaken for 10 minute, and then transferred to a 96 well microtube. Each tube was counted in a Wallac gamma scintillation counter. The data was collected and plotted using Kaleidagraph. Curves were drawn using a 4-parameter fit.

The target is the same in assay [4]. In words: cell-based competition ELISA on CHO cells expressing full-length human OX40L; competitor human OX40-IgG-bio, streptavidin-HRP. The procedure:
(§1) In other experiments, CHO cells expressing full-length human OX40L were grown in 50:50 F12/DMEM medium supplemented with 2 mM L-glutamine, 100 units/ml penicillin, 100 ug/ml streptomycin (supplemented medium), and 5% FBS (Gibco BRL Life Technologies, Gaithersburg, Md.) (growth medium) in a humidified 5% CO₂ incubator at 37° C. Cells were detached from culture plates using Accutase (ICN) and added to 96 well microwell plates at 300,000 cells/well. A mixture of human OX40-IgG and serial dilutions of antibodies in growth medium was added to the plates. After a one-hour incubation on ice, cells were washed by centrifuging the plates and removing the supernatant. Bound human OX40-IgG was detected using anti-Fc-HRP. […] In some experiments, human OX40-IgG-bio was used instead of human OX40-IgG. Bound human OX40-IgG-bio was detected using streptavidin-HRP. Plates were developed and read as described above.
Background: In an ELISA, binding on a coated surface is turned into a signal by an enzyme label.

The target in another assay is T3, mouse OX40L-Flag (mouse, UniProt P43488 51-198, limits assumed).
T3 construct: not shown: Flag tag
T3 sequence (looked up): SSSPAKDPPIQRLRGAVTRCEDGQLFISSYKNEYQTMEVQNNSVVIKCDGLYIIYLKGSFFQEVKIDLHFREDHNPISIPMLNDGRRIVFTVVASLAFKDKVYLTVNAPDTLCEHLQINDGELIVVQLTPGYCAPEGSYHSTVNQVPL
The experiment in a line: ELISA, plates coated with antibody, serial dilutions of mouse OX40L-Flag, biotinylated anti-Flag and streptavidin-HRP detection. As for the experimental part: (§2) To determine whether Mabs 8E12 and 13G5 bound mouse OX40L, ELISA plates were coated with mouse OX40L. Serial dilutions of 8E12 or 13G5 (0.004-4 ug/ml) were added. Goat anti-mouse Fc-HRP was used for detection. No binding was observed. In a different format, ELISA plates were coated with 8E12 or 13G5. Serial dilutions of mouse OX40L-Flag were added. Biotinylated anti-Flag followed by streptavidin-HRP was used for detection. No binding was observed.

For the next assay, the target named is T4, mouse OX40L (mouse, UniProt P43488 51-198, limits assumed).
T4 construct: Construct coated on the plate is not described
T4 sequence (looked up): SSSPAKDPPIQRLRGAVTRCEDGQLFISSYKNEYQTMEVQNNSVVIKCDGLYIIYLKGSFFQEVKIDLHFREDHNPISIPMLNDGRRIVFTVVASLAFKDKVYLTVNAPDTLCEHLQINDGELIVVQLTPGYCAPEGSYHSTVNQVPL
The experiment in a line: ELISA, plates coated with mouse OX40L, goat anti-mouse Fc-HRP detection. The procedure: as §2

The target in assay [5] is T2, recombinant human OX40L-flag …. In words: competition ELISA, coated human OX40-IgG as competitor, Flag-tagged OX40L (printed 'OX40-Flag') in solution with antibody dilutions; plate coated with OX40-IgG; Flag-tagged ligand in solution with antibody.
Assay [6] has as its target T1, full-length human OX40L expressed on …. The experiment in a line: cell-based competition ELISA on CHO cells expressing full-length human OX40L; competitor human OX40-IgG, anti-Fc-HRP. The procedure:
as §1

In assay [7] the target is T2, recombinant human OX40L-flag …. In words: competition ELISA, OX40L ECD-Flag captured by anti-Flag; competitor human OX40-IgG-bio; OX40L ECD-Flag captured on anti-Flag plate; OX40-IgG-bio as competitor. As for the experimental part:
Competition ELISA analysis was conducted as follows to examine binding of anti-OX40L Mabs 8E12 and 13G5 to OX40L in solution, and to examine binding to cell-surface expressed OX40L. In some experiments, maxiSorp 96-well microwell plates (Nunc, Roskilde, Denmark) were coated overnight at 4° C. with 2 ug/ml anti-FlagM2 antibody (Sigma) in 50 mM carbonate buffer, pH 9.6. Plates were washed with PBS containing 0.05% polysorbate 20 and blocked with 0.5% bovine serum albumin, 10 ppm Proclin 300 (Supelco, Bellefonte, Pa.) in PBS at room temperature for 1 h. Plates were washed and 0.5 ug/ml of human OX40L ECD-Flag polypeptide was added. After a one-hour incubation, plates were washed. A mixture of human OX40-IgG-bio and serial dilutions of antibodies in PBS containing 0.5% bovine serum albumin, 0.05% polysorbate 20, 10 ppm Proclin 300 was added. The plates were incubated for 2 h at room temperature and washed. Bound human OX40-IgG-bio was detected by adding streptavidin-HRP (Amdex, Copenhagen, Denmark) followed by 3,3′,5,5′-tetramethyl benzidine (Kirkegaard & Perry Laboratories, Gaithersburg, Md.) as the substrate. […] Absorbance was read at 450 nm on a Titertek stacker reader (ICN, Costa Mesa, Calif.). The titration curves were fit using a four parameter regression curve fitting program (KaleidaGraph, Synergy software, Reading, Pa.). […]

Usually Kd stands for the constant that tells how readily two partners part at equilibrium. In general, koff refers to the first-order rate constant of dissociation. As usually defined, the EC50 is the concentration at which the effect is half-maximal.

B1: mouse anti-human OX40L monoclonal antibody 8E12 (antibody, V domains shown)
VH: QVQLQQPGAELVRPGASVKLSCKASGYTFTSYWLNWVKQRPGQGLEWIVMIDPSDSETHYNQVFKDKATLTVDKSSSTAYMQLSSLTSEDSAVYYCIRGRGNFYGGSHAMEYWGQGTLLTVSS
VL: DILMTQTPLSLPVSLGDQASISCRSSQSIVHGNGNTYLEWHLQKPGQSPKLLIYRVSNRFSGVPDRFSGSGSGTDFTLKINRVEAEDLGVYYCFQGSHVPYTFGGGTKVEIKR
notes: Tested as mouse IgG purified from hybridoma medium by Protein A; also called Mab 8E12; anti-OX40L mab 8E12
Regarding B1, in assay [1], binding was characterised by a dissociation constant (Kd) of 0.92 nM. Further, the dissociation rate constant (koff) in assay [2] was less than 5e-06 s⁻¹. For the same molecule, the “IC50 (read off the curve)” value in assay [3] lay in the range of 2.5 to 3 nM. In addition, the EC50 was roughly 11 nM in assay [4], roughly 1.9 nM in [5], roughly 20 nM in assay [6] and roughly 1.4 nM in [7]. In addition, the binding result in the assay with mouse OX40L-Flag is reported as “no binding”; with mouse OX40L it was “no binding (tested: 0.004-4 ug/ml)”.

The record behind these values is patent US20090053230A1 (Genentech, published 2009).
